Reference: the RNAGym collection of RNA variant scans (doi:10.7554/elife.90254)

B1: LINE1-full (parent)
chain: UACGUAGGUGGUUUUCCCCUGAUAGUGCUAAGGGGGCCUGGAAGUUUGGACUGGGCAGAGCUCAACACAGCGUGGCAAAGUGGCUGUGGCUAGACUGCCUCUCUGGAUUCCUCGUCACUCAGCAGGGCAUCUCUGAGAGAAAUGCC

Variants of: B1
Experiment: self-cleavage, relative activity (ratio to wild type); higher = more cleavage; in vitro, sequencing; the parent is a self-cleaving ribozyme

Variant	self-cleavage
G36C U45C	1.05
A67U U104C	0.25
C71U U100A	0.04
A2G U9A	0.56
A69G A136G	0.42
U39A A140G	1.36
A77G A117U	2.58
U96A G97A	0.09
U1C U100A	0.69
U81A	1.89
A107C A136U	1.2
U102A A141G	1.42
G35C U143G	0.86
A6G G40A	0.84
A24U U81C	1.24
A77G U91C	0
G70U A79G	0.03
U100C U115A	1.87
A64U A124G	0.3
A64U U73A	0.21
A42C U134C	1.31
G58U U62C	0
C101A U132C	1.39
U5G A50U	0.38

Variant	self-cleavage
G58A U81C	0.05
U87C C145G	0.32
A30U A31G	1.23
G83A A121G	0.98
A107U U109C	1.58
A6U U132C	1.33
U23C U45C	1.7
A24G U102A	1.15
A42G A64U	0.52
A22G C113G	0.82
G88A A140G	0.08
U20C U85C	0.38
G127C U143C	1.61
U15A G40A	1.24
G106C	1.37
A2U A67G	0.61
U9A U12G	0.67
U46G A50G	0.92
A57G C128U	0.79
C17U U52G	1.41
A117C U130C	2.3
U39A A43G	0.63
U47C U134A	1.34
G32A C51U	0.88

Variant	self-cleavage
G35U A117U	1.04
U15A G21A	1.15
A31C U100C	0.92
G34A A50G	0.87
C71A A124G	0.13
G32C A138G	0.84
A31U A124G	1.09
U91C U115A	0.56
U14C G74A	0.96
U23A U130C	1.44
U81A U130C	2.43
C3U G82U	0.88
C38A G97A	0.05
U39A C128G	1.62
U102C	1.29
C3U A117C	0.75
C3U A117U	1.31
A65G G89A	0.04
A64G A142G	0.25
G55U G144A	0.43
A69G A140G	0.36
G8A A50G	0.85
U52G A69U	0.1
A50G U132C	1.07

Variant	self-cleavage
C68U A117U	0.25
A77U A141G	1.4
U47G G135A	0.79
A121G A138U	1.59
U47C A59G	0.12
A57U U62C	0.05
U62C A124G	0.08
U109A U143A	1.75
U29A U81A	1.96
A24U U104A	0.65
U47C A117C	1.96
U20C C95U	0.27
U100C A107U	1.21
U47A C120A	1.36
C76U G82A	2.8
U1C G89U	0
U15C G75A	1.28
U13A U96C	0.1
U5C A67G	0.67
A124U C133A	1.59
G4A U12C	0.77
A22G A142U	0.92
A42U G72U	0.62
C84A U100C	0.14

Variant	self-cleavage
C17G U115C	0.84
G32U A65G	0.12
A65U A117G	0.24
U12G A138U	1.02
A42G C103A	1.49
U46C A117C	2.44
U46C C111A	1.17
A67C U87A	0.05
U20A G32C	1.33
C19U A67G	0
U85A G125A	0.04
U115C C146A	1.82
C3A A65G	0.29
C120A A142G	0.91
U62C A141G	0.03
U1C A43C	0.37
A138U	1.1
A24G A142G	1.1
U20G U46C	2.3
A141C A142G	1.26
U45C G80A	2.16
C37G A124G	1.61
U46A A67U	0.1
U20C A124G	1.06

Variant	self-cleavage
C37U U134C	1.25
A24G A124U	1.54
C76U A129U	1.57
A59U A78G	0.68
C3U A77U	0
G21U G35A	1.36
G72A U108C	1.54
U26A A57U	0.04
U12A U15A	0.95
U46C A69G	0.85
C3A A30G	1.39
U5C U143C	0.11
U14A A136C	1.78
U12A G32C	0.8
A2U U73C	0.56
U62C A69G	0.06
U62G	0.05
U100C A129U	1.92
U29A A69U	0.07
C37U G40A	0.68
C38U U104C	1.71
U104A U115A	1.13
G25U G114A	1.13
U115A A129U	1.04

Variant	self-cleavage
U13A U23C	1.62
U52A A77U	1.03
U91A	0.58
G10A U81A	2.3
G70U C90G	0.02
U73C U134A	1.54
U62C U81C	0.05
A43G U73A	1.53
A59U U73A	0.94
C19U U62C	0.06
A50U A57G	0.08
U12A A140G	1.51
U87G C118U	0.17
G32A U96A	0.05
U15A G33A	0.98
U26A U143A	2.23
C120G A129G	1.23
U47C G127A	1.31
A42U U104C	1.76
G83A U119C	1.51
A79G U109G	0.8
G89C A107G	0.11
G21A U115C	2.12
